Paper PMC9669019, “Molecular basis for integrin adhesion receptor binding to p21-activated kinase 4 (PAK4)” (Communications Biology, 2022)
Where “and” joins values, the source holds several entries; their conditions need not be identical. Identical values can stand only once. Blank lines part the entries; values can stand above or below the binder they belong to. Ends that are not written are not given here. helical region = not defined here

How the values were obtained:
PAK4 catalytic domain = target: T1, PAK4 catalytic domain (human, UniProt O96013 286-591); test: ITC; Nano-ITC, 25 °C, PBS pH 7.4; 407 µM integrin β5^743–799 in the syringe titrated into 44 or 72 µM PAK4cat in the sample cell; PAK4cat pre-incubated with 5 mM MgCl2 and 1 mM AMP-PNP; 20 injections of 2.5 µL; settings: both partners purified
T1 construct: the GFP-PAK4-cat of the pull-downs is 302-591; The His tag is cleavable by TEV protease; also called PAK4 kinase domain; source: E. coli BL21-CodonPlus(DE3)RILP, purified (HisTrap, Resource Q, Superdex 200)

[1] = target: T2, PAK4 catalytic domain, purified recombinant (PAK4-cat) (human, UniProt O96013 286-591); test: ITC; Nano-ITC, 25 °C, PBS pH 7.4; 407 µM integrin β5 743–799 in the syringe, 44 and 72 µM PAK4cat (pre-incubated with 5 mM MgCl2 and 1 mM AMP-PNP) in the cell; 20 injections of 2.5 µL; settings: both partners purified
T2 construct: catalytic domain of PAK4 (UniProt O96013); residues 300–589 built in PDB 7S48 chain A; His tag is cleavable by TEV protease; also called PAK4 kinase domain; wild-type PAK4; source: E. coli BL21-CodonPlus(DE3)RILP, purified (HisTrap, Resource Q, Superdex 200)

[2] = target: T2, PAK4 catalytic domain, purified …; test: cell-based or functional assay
[3] = target: T2, PAK4 catalytic domain, purified …; test: pull-down; His-tagged β5 tails on Ni-NTA beads; varying concentrations of purified PAK4-cat in buffer X-T, 2 h, 4 °C; apparent affinity, one-site specific-binding model, three independent experiments; settings: both partners purified

T2 sequence (O96013 286-591): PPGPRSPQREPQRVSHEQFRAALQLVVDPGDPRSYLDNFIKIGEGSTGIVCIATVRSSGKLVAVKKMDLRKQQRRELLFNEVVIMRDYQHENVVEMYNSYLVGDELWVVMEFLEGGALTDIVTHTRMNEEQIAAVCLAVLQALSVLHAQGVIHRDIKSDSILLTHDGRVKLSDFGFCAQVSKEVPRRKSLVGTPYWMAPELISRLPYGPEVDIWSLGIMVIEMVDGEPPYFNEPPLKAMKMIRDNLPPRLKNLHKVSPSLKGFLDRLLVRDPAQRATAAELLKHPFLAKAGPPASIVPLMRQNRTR
T1 sequence (O96013 286-591): as above

Kd (PAK4 catalytic domain): 5.1 µM and 4.8 µM | stoichiometry N (PAK4 catalytic domain): 1.4 and 0.7
B1: 6xHis integrin β5 full-length cytosolic peptide (residues 743–799) (domain or fragment, UniProt P18084 743-799, looked up)
chain: KLLVTIHDRREFAKFQSERSRARYEMASNPLYRKPISTHTVDFTFNKFNKSYNGTVD
modifications: also: 6xHis tag, position not given here
notes: also called integrin β5 cytoplasmic tail

Kd [1]: 4.95 ± 1.5 µM | dH [1]: -8.45 ± 0.75 kJ/mol | stoichiometry N [1]: 1.05 ± 0.35
B2: 6xHis integrin β5 full-length cytosolic peptide (residues 743–799) (domain or fragment, UniProt P18084 743-799, looked up)
chain: KLLVTIHDRREFAKFQSERSRARYEMASNPLYRKPISTHTVDFTFNKFNKSYNGTVD
modifications: also: 6xHis tag, position not given here
notes: subcloned into a pET32 vector

inhibition of PAK4 phosphorylation of a LIMK1 10mer peptide (…, 50 µM) in a radioactive in vitro kinase assay, β5 peptide 0–1024 µM, 1 mg/ml BSA: IC50 [2]: 160 µM
B3: integrin β5 peptide, residues Glu760-Ser770 (peptide)
peptide: Ac-ERSRARYEMAS-NH2

Kd [3]: ~1800 nM
B4: His-tagged recombinant model of the integrin β5 cytoplasmic tail (domain or fragment)
chain: {His‑tag-helical region-Gly4}-KLLVTIHDRREFAKFQSERSRARYEMASNPLYRKPISTHTVDFTFNKFNKSYNGTVD
modifications: not fully specified; reading uncertain
